The results in this text go back to patent US20190264213A1 (YEDA RESEARCH AND DEVELOPMENT, published 2019).

B1: phi3T AimR receptor with C-terminal 6xHis-tag (purified) (receptor)
chain: MIKNECEKDNQLAARLAKLAGYEKVNGFYKFVNTPEKEMENLGGLLKIVKNLFPDSEEQLLSEYFLELDPNKKCARQSVEYSDINQWDTLTDKIIINLCNSKNSTSQEWGKVYSLHRKLNKNEISLNDAIRESGKCKIKSAEMLFFSNAMLMYAYLNIGEFGLMKSTSKLLEFDDLPEGFIKESFKSRVSMLEANISLNENSLLEARQHSNRAIENSNVNRICFFAYLTIGNTLIFEDYDEAKKAYIKGQKYAKNPVHQEMLDGALCFLSNIWKKENQWVNYNSDNIKYLQLRAFYYINQGNIEEATEILDELSSRDQDENELGFYYYYKGLISQDKTDYYKSIRYFKKSDDKYFIQLPLLQLERMGADLELLNLISIHHHHHH
notes: Expressed in E. coli BL21(DE3) from pET28a and purified in two steps; Migrates as a homodimer in gel filtration without peptide and as a monomer with SAIRGA; also called His-tagged AimR; purified AimR

Data set [1] concerns the molecule itself. In words: analytical gel filtration (Superdex 200 Increase), self-association. For orientation: In gel filtration, larger molecules generally elute earlier.
Description: Pure AimR was injected to an analytical gel filtration column (Superdex_200_Increase_10/30 GL, GE Healthcare) equilibrated with buffer containing 20 mM Tris pH 8, 0.3 M NaCl, 2 mM TCEP. […] The column was calibrated (inset of FIG. 4C) by monitoring the migration positions of the following known proteins/polymers: blue dextran (2000 kDa), Thyroglobulin (669 kDa), Apoferritin (443 kDa), beta-amylase (200 kDa), alcohol dehydrogenase (150 kDa), Albumin (66 kDA) and Carbonic anhydrase (29 kDa).
Data set [2] deals with B1. In words: microscale thermophoresis (MST), label-free. On the technique in general: MST reads how a fluorescent partner responds to local heating, with and without ligand.
Description: Two-step purified 6×His-tagged AimR stored in Tris/NaCl buffer (50 mM Tris pH 8.0, 150 mM NaCl, 2 mM TCEP) at −80° C. was thawed on ice and centrifuged at 21,000 g for 10 minutes at 4° C. prior to analysis. […] AimR was diluted to 200 nM and was incubated with 16 different peptide concentrations varying between 9-4000 nM, which were prepared in Tris/NaCl buffer containing 0.1% [v/v] Pluronic acid (NanoTemper). Roughly 3 μl were loaded into NT.LabelFree Zero-Background Premium Coated Capillaries (NanoTemper) and inserted into a Monolith NT.LabelFree device (NanoTemper). MST experiments were performed at 60% MST power (infra-red laser) and 20% LED power at 23° C. using the Monolith NT.LabelFree instrument (Nanotemper). Ratios between normalized initial fluorescence and post-temperature-jump and thermophoresis were calculated and averaged from 3 independent runs (runs were incubated for 20 minutes at room temperature before the measurement).

With B1, the binding result in data set [1] is on record as “binds”.

B2: GMPRGA peptide (spBeta arbitrium peptide, mature AimP) (peptide)
peptide: GMPRGA
notes: Synthetic peptide, 98% purity, desalted (Peptide 2.0 Inc.); also called spBeta-derived GMPRGA peptide
In the case of B2, the binding result in data set [2] is on record as “no binding (tested: peptide 9-4000 nM, AimR 200 nM)”.
